Results reported in patent publication US20220112180, “NOVEL COMPOUNDS AS POTENTIAL THERAPEUTIC AGENTS TARGETING VARIOUS NEURODEGENERATIVE DISEASES” (The Hong Kong University of Science and Technology, published 2022).

T1: hnRNP H RRM domain (RRM1/2) (UniProt P31943 P31943:11-188)
T1 sequence: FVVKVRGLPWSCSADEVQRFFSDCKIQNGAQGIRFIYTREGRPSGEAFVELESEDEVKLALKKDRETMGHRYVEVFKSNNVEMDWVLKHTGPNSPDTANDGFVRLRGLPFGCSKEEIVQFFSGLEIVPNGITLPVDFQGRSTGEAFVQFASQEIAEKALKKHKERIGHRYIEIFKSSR


Columns and labels:
[1] = target: T1, hnRNP H RRM domain (RRM1/2); experiment: 1H-15N HSQC NMR titration at 1:0.5, described as potent binding; 20 mM potassium phosphate, 70 mM KCl, pH 7.0, 25 C; conditions: tags: His6 cleaved by 3C protease; pET-28a(+), E. coli BL21(DE3); 15N-labelled; G4
Protocol: (§1) Titration experiments were performed by recording a series of 2D ¹⁵N-HSQC spectra on uniformly ¹⁵N-labeled RRM domain (˜0.1 mM) in the presence of different amounts of DNA/RNA or compounds at 25° C. Protein samples and stock solutions of DNA/RNA were all prepared in 20 mM potassium phosphate buffer and 70 mM KCl, pH 7.0, 10% D₂O. All compounds were dissolved in isotope-labeled d₆-DMSO (Sigma-Aldrich) at about 50 mM concentration, working as stock solutions. To avoid chemical shift changes of protein samples resulted from d₆-DMSO addition, 10 μL d₆-DMSO was added into 500 μL of 0.1 mM protein solution in the NMR buffer (20 mM potassium phosphate buffer and 70 mM KCl, pH 7.0, 10% D₂O) and then the 2D HSQC was recorded as a reference.

[2] = target: T1, hnRNP H RRM domain (RRM1/2); experiment: 1H-15N HSQC NMR titration at 1:0.5; 20 mM potassium phosphate, 70 mM KCl, pH 7.0, 25 C; conditions: tags: His6 cleaved by 3C protease; pET-28a(+), E. coli BL21(DE3); 15N-labelled; G4
Protocol: as §1

Binder	binding result [1]	binding result [2]
GGGGCCGGGGCCGGGGCCGGGGCC (structured_DNA) [DNA (G4C2)4 G4]	binds	–
GGGGCCGGGGCC (ssRNA) [RNA (G4C2)2 G4]	–	binds
